This passage reports IC50 results from patent US20030224036A1, “Hla class I a2 tumor associated antigen peptides and vaccine compositions” (priority 1999, published 2003).

Common to all, as to settings: remark: other sources report otherwise
Experiment [1] has as its target HLA-A*0201 (human). Briefly: competitive inhibition assay, purified HLA.
The target of experiment [2] is HLA-A*6802 (human). Kind of experiment: competitive inhibition assay, purified HLA.
Experiment [3] deals with HLA-A*6802 (human). Kind of experiment: competitive binding assay, purified HLA.
The target of experiment [4] is HLA-A*0206 (human). Kind of experiment: competitive inhibition assay, purified HLA.
Experiment [5] has as its target HLA-A*0206 (human). Briefly: competitive binding assay, purified HLA.
The target in experiment [6] is HLA-A*0201 (human). Kind of experiment: competitive binding assay, purified HLA.

What is called IC50 is the point on the concentration scale where inhibition reaches its midpoint. VMAGVGSPYV [Her2/neu.773] yielded an IC50 in the experiment with HLA-A*0201 (human) [1] of 0.2 µM. As to VVLGVVFGI [Her2/neu.665], the IC50 in the experiment with HLA-A*6802 (human) [2] and with HLA-A*6802 (human) [3] was 2 µM throughout. Turning to YLSGANLNV [CEA.605V9], the IC50 in the experiment with HLA-A*0206 (human) [4] and with HLA-A*0206 (human) [5] was 0.08 µM throughout. Regarding YLQLVFGIEV [MAGE2.157], the IC50 with HLA-A*0201 (human) [1] and in the experiment with HLA-A*0201 (human) [6] was 0.05 µM each time.
